T1: UL128 expressed from MVA in BHK-21 cells (human cytomegalovirus, UniProt P16837 28-171)
T1 construct: whole, on cells
T1 sequence: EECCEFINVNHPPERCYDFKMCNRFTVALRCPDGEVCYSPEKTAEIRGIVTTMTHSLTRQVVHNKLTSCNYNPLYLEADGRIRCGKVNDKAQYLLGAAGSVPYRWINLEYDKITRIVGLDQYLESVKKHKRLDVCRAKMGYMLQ

B1: 54E11 (antibody, V domains shown)
VH: QIQLVQSGPELKKPGETVKISCKASGYTFTSYGMNWVKQAPGKGLKWMGWINTYTGEPTYADDFKGRFAFSLETSASTAYLQINNLKNEDTATYFCAREHYYGINPLLGCWGQGTTLTVSS
VL: DIQMTQTTSSLSASLGDRVTISCSASQGISNYLNWYQQKPDGTVKLLIYDTSSLHSGVPSRFSGSGSGTDYSLTISNLEPEDIATYYCQQYSKLPYTFGGGTKLEIK
notes: also called NAb 54E11
B2: 21F6 (antibody, V domains shown)
VH: B1 VH
VL: B1 VL
notes: also called NAb 21F6

Tests used:
[1] = target: T2, gH/gL/UL128/UL130/UL131A pentamer complex expressed from MVA-PC in BHK-21 cells (human cytomegalovirus, UniProt P12824 24-743; P16832 31-278; P16837 28-171; P16772 1-214; F5HET4 19-129); experiment: FC, biotinylated NAb titrated on MVA-PC-infected BHK-21 (cell surface PC)
T2 construct: whole, on cells

[2] = target: T2, gH/gL/UL128/UL130/UL131A pentamer …; experiment: FC competition, MVA-PC BHK-21; unlabelled row Ab; competitor: biotinylated 18F10
[3] = target: T2, gH/gL/UL128/UL130/UL131A pentamer …; experiment: FC competition, MVA-PC BHK-21; unlabelled row Ab; competitor: biotinylated 54E11
[4] = target: T2, gH/gL/UL128/UL130/UL131A pentamer …; experiment: FC competition, MVA-PC BHK-21; unlabelled row Ab; competitor: biotinylated 13B5
[5] = target: T3, UL130 expressed from MVA in BHK-21 cells (human cytomegalovirus, UniProt P16772 1-214); experiment: intracellular FC, MVA-infected BHK-21
T3 construct: whole, on cells

[6] = target: T4, UL131A expressed from MVA in BHK-21 cells (human cytomegalovirus, UniProt F5HET4 19-129); experiment: intracellular FC, MVA-infected BHK-21
T4 construct: whole, on cells

[7] = target: T5, gH expressed from MVA in BHK-21 cells (human cytomegalovirus, UniProt P12824 24-743); experiment: intracellular FC, MVA-infected BHK-21
T5 construct: whole, on cells

[8] = target: T6, gH/gL/UL130 co-expressed from MVA in BHK-21 cells (human cytomegalovirus, UniProt P12824 24-743; P16832 31-278; P16772 1-214); experiment: intracellular FC, MVA-infected BHK-21
T6 construct: whole, on cells

[9] = target: T7, gH/gL/UL131A co-expressed from MVA in BHK-21 cells (human cytomegalovirus, UniProt P12824 24-743; P16832 31-278; F5HET4 19-129); experiment: intracellular FC, MVA-infected BHK-21
T7 construct: whole, on cells

[10] = target: T8, gH/gL/UL128 co-expressed from MVA in BHK-21 cells (human cytomegalovirus, UniProt P12824 24-743; P16832 31-278; P16837 28-171); experiment: intracellular FC, MVA-infected BHK-21
T8 construct: whole, on cells

[11] = target: T9, gH/gL co-expressed from MVA in BHK-21 cells (human cytomegalovirus, UniProt P12824 24-743; P16832 31-278); experiment: intracellular FC, MVA-infected BHK-21
T9 construct: whole, on cells

[12] = target: T10, gH/gL/UL128/UL130 co-expressed from MVA in BHK-21 cells (human cytomegalovirus, UniProt P12824 24-743; P16832 31-278; P16837 28-171; P16772 1-214); experiment: intracellular FC, MVA-infected BHK-21
T10 construct: whole, on cells

[13] = target: T11, UL128/UL130 co-expressed from MVA in BHK-21 cells (human cytomegalovirus, UniProt P16837 28-171; P16772 1-214); experiment: intracellular FC, MVA-infected BHK-21
T11 construct: whole, on cells

[14] = target: T1, UL128 expressed from MVA in BHK-21 cells; experiment: intracellular FC, MVA-infected BHK-21
[15] = target: T12, UL128/UL131A co-expressed from MVA in BHK-21 cells (human cytomegalovirus, UniProt P16837 28-171; F5HET4 19-129); experiment: intracellular FC, MVA-infected BHK-21
T12 construct: whole, on cells

[16] = target: T13, gH/gL/UL128/UL131A co-expressed from MVA in BHK-21 cells (human cytomegalovirus, UniProt P12824 24-743; P16832 31-278; P16837 28-171; F5HET4 19-129); experiment: intracellular FC, MVA-infected BHK-21
T13 construct: whole, on cells

[17] = target: T2, gH/gL/UL128/UL130/UL131A pentamer …; experiment: FC competition, MVA-PC BHK-21; unlabelled row Ab; competitor: biotinylated 21F6
[18] = target: T2, gH/gL/UL128/UL130/UL131A pentamer …; experiment: FC competition, MVA-PC BHK-21; unlabelled row Ab; competitor: biotinylated 1B2
[19] = target: T2, gH/gL/UL128/UL130/UL131A pentamer …; experiment: FC competition, MVA-PC BHK-21; unlabelled row Ab; competitor: biotinylated 12E2
[20] = target: gH/gL/UL128/UL130/UL131A pentamer complex (PC) of HCMV strain TB40/E virus (human cytomegalovirus strain TB40/E); experiment: cell-based or functional assay
[21] = target: gH/gL/UL128/UL130/UL131A pentamer complex (PC) of HCMV strain TR virus (human cytomegalovirus strain TR); experiment: cell-based or functional assay

Binder	EC50 [1] [nM]	Binding Inhibition (%) [2] [%]	Binding Inhibition (%) [3] [%]	Binding Inhibition (%) [4] [%]	binding result [5]	binding result [6]	binding result [7]	binding result [8]	binding result [9]	binding result [10]	binding result [11]	binding result [12]	binding result [13]	binding result [14]	binding result [15]	binding result [16]	Binding Inhibition (%) [17] [%]	Binding Inhibition (%) [18] [%]	Binding Inhibition (%) [19] [%]	IC50, inhibition of TB40/E cell-to-cell spread in ARPE-19 [20] [µg/mL]	further results
B1	0.51	0	100	0	no binding	no binding	no binding	no binding	no binding	no binding	no binding	no binding	no binding	no binding	no binding	no binding	100	0	0	17	IC50, neutralization of TB40/E infection of ARPE-19 [20]: 3.4 ng/mL; IC50, neutralization of TB40/E infection of CTB [20]: 24.9 ng/mL; IC50, neutralization of TB40/E infection of HUVEC [20]: 4.6 ng/mL; IC50, neutralization of TB40/E infection of MRC-5 [20]: > 25000 ng/mL; IC50, inhibition of TR cell-to-cell spread in ARPE-19 [21]: 18 µg/mL; IC50, neutralization of TR infection of ARPE-19 [21]: 3.4 ng/mL; IC50, neutralization of TR infection of HUVEC [21]: 5.9 ng/mL; IC50, neutralization of TR infection of MRC-5 [21]: > 25000 ng/mL
B2	0.62	0	100	0	no binding	no binding	no binding	no binding	no binding	no binding	no binding	no binding	no binding	no binding	no binding	no binding	100	0	0	18	IC50, neutralization of TB40/E infection of ARPE-19 [20]: 2.6 ng/mL; IC50, neutralization of TB40/E infection of CTB [20]: 30.7 ng/mL; IC50, neutralization of TB40/E infection of HUVEC [20]: 4 ng/mL; IC50, neutralization of TB40/E infection of MRC-5 [20]: > 25000 ng/mL; IC50, inhibition of TR cell-to-cell spread in ARPE-19 [21]: 19 µg/mL; IC50, neutralization of TR infection of ARPE-19 [21]: 3.5 ng/mL; IC50, neutralization of TR infection of HUVEC [21]: 5.9 ng/mL; IC50, neutralization of TR infection of MRC-5 [21]: > 25000 ng/mL
